# Patent US20130195871A1 (AbbVie / Abbott, published 2013)
# Tests used:
# [1] = molecular target: T1, Recombinant Human MSP Receptor ECD-His tag (human, UniProt Q04912 25-957); assay: SPR (Biacore), N-terminal VD;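 further: capture of antibodies or DVD-Ig proteins on an anti-mouse IgG chip surface, recombinant antigen injected at 10–200 nM in HBS-EP running buffer at 25 °C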
# T1 construct: extracellular domain; bought reagent; also called RON
# Recombinant Human IGF1R = molecular target: T2, Recombinant Human IGF1R (human, UniProt P08069 31-932); assay: SPR (Biacore), N-terminal VD;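 further: capture of antibodies or DVD-Ig proteins on an anti-mouse IgG chip surface, recombinant antigen injected at 10–200 nM in HBS-EP running buffer at 25 °C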
# T2 construct: bought reagent
# [2] = molecular target: T1, Recombinant Human MSP Receptor ECD-His …; assay: SPR (Biacore)
# Experimental: The BIACORE assay (Biacore, Inc, Piscataway, N.J.) determined the affinity of antibodies or DVD-Ig proteins with kinetic measurements of on-rate and off-rate constants. Binding of antibodies or DVD-Ig proteins to a target antigen (for example, a purified recombinant target antigen) was determined by surface plasmon resonance-based measurements with a Biacore® 1000 or 3000 instrument (Biacore AB, Uppsala. Sweden) using running HBS-EP (10 mM HEPES [pH 7.4], 150 mM NaCl, 3 mM EDTA, and 0.005% surfactant P20) at 25° C. […] For example, approximately 5000 RU of goat anti-mouse IgG, (Fcγ), fragment specific polyclonal antibody (Pierce Biotechnology Inc, Rockford, Ill.) diluted in 10 mM sodium acetate (pH 4.5) was directly immobilized across a CM5 research grade biosensor chip using a standard amine coupling kit according to manufacturer's instructions and procedures at 25 μg/ml. Unreacted moieties on the biosensor surface were blocked with ethanolamine. Modified carboxymethyl dextran surface in flowcell 2 and 4 was used as a reaction surface. Unmodified carboxymethyl dextran without goat anti-mouse IgG in flow cell 1 and 3 was used as the reference surface. For kinetic analysis, rate equations derived from the 1:1 Langmuir binding model were fitted simultaneously to association and dissociation phases of all eight injections (using global fit analysis) with the use of Biaevaluation 4.0.1 software. Purified antibodies or DVD-Ig proteins were diluted in HEPES-buffered saline for capture across goat anti-mouse IgG specific reaction surfaces. Antibodies or DVD-Ig proteins to be captured as a ligand (25 μg/ml) were injected over reaction matrices at a flow rate of 5 μl/minute. The association and dissociation rate constants, kₒₙ (M⁻¹s⁻¹) and koff (s⁻¹) were determined under a continuous flow rate of 25 μl/minute. Rate constants were derived by making kinetic binding measurements at different antigen concentrations ranging from 10-200 nM. The equilibrium dissociation constant (M) of the reaction between antibodies or DVD-Ig proteins and the target antigen was then calculated from the kinetic rate constants by the following formula: KD=koff/kₒₙ. Binding was recorded as a function of time and kinetic rate constants were calculated.
# [3] = molecular target: T3, Recombinant Human ErbB3/FC Chimera-His tag (human, UniProt P21860 20-643); assay: SPR (Biacore), N-terminal VD;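 further: capture of antibodies or DVD-Ig proteins on an anti-mouse IgG chip surface, recombinant antigen injected at 10–200 nM in HBS-EP running buffer at 25 °C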
# T3 construct: bought reagent
binder,measurement,setting,value
"DVD2316 (bispecific antibody, DVD-Ig, outer AB005 / inner AB080) VH: EVQLVQSGGGLVKPGGSLRLSCAASGFTFSSYAMHWVRQAPGKGLEWVAVISYDGSNKYYADSVKGRFTISRDNSKNTLYLQMNSLRAEDTAVYYCARFSGWPNNYYYYGMDVWGQGTTVTVSSASTKGPEVQLVESGGGLVQPGGSLRLSCAASGFTFTDYTMDWVRQAPGKGLEWVADVNPNSGGSIYNQRFKGRFTLSVDRSKNTLYLQMNSLRAEDTAVYYCARNLGPSFYFDYWGQGTLVTVSS VL: DVVMTQSPLSLPVTPGEPASISCRSSQSLLHSNGFNYVDWYLQKPGQSPHLLIYFGSYRASGVPDRFSGSGSGTDFTLKISRVEAEDVGVYYCMQALQTPPWTFGQGTKVEIRRTVAAPDIQMTQSPSSLSASVGDRVTITCKASQDVSIGVAWYQQKPGKAPKLLIYSASYRYTGVPSRFSGSGSGTDFTLTISSLQPEDFATYYCQQYYIYPYTFGQGTKVEIK",Kd,[1],19 nM
same,koff,[1],0.00089 s⁻¹
same,kon,[1],46000 M⁻¹ s⁻¹
"DVD2288 (bispecific antibody, DVD-Ig, outer AB075 / inner AB080) VH: EVQLVQSGAEVKKPGSSVKVSCKASGGTFSSYAISWVRQAPGQGLEWMGGIIPIFGTANYAQKFQGRVTITADKSTSTAYMELSSLRSEDTAVYYCARAPLRFLEWSTQDHYYYYYMDVWGKGTTVTVSSASTKGPEVQLVESGGGLVQPGGSLRLSCAASGFTFTDYTMDWVRQAPGKGLEWVADVNPNSGGSIYNQRFKGRFTLSVDRSKNTLYLQMNSLRAEDTAVYYCARNLGPSFYFDYWGQGTLVTVSS VL: SSELTQDPAVSVALGQTVRITCQGDSLRSYYATWYQQKPGQAPILVIYGENKRPSGIPDRFSGSSSGNTASLTITGAQAEDEADYYCKSRDGSGQHLVFGGGTKLTVLGQPKAAPDIQMTQSPSSLSASVGDRVTITCKASQDVSIGVAWYQQKPGKAPKLLIYSASYRYTGVPSRFSGSGSGTDFTLTISSLQPEDFATYYCQQYYIYPYTFGQGTKVEIK",Kd,Recombinant Human IGF1R,12 nM
same,koff,Recombinant Human IGF1R,0.00026 s⁻¹
same,kon,Recombinant Human IGF1R,22000 M⁻¹ s⁻¹
"DVD2208 (bispecific antibody, DVD-Ig, outer AB005 / inner AB034) VH: EVQLVQSGGGLVKPGGSLRLSCAASGFTFSSYAMHWVRQAPGKGLEWVAVISYDGSNKYYADSVKGRFTISRDNSKNTLYLQMNSLRAEDTAVYYCARFSGWPNNYYYYGMDVWGQGTTVTVSSASTKGPQVQLQESGPGLVKPSEILSLTCTVSGGSISSHYWSWVRQPPGKGLEWIGYIYYSGSTNYNPSLKSRVTISVDTSKNQFSLNLSSVTAADTAVYYCARIPNYYDRSGYYPGYWYFDLWGRGTLVTVSS VL: DVVMTQSPLSLPVTPGEPASISCRSSQSLLHSNGFNYVDWYLQKPGQSPHLLIYFGSYRASGVPDRFSGSGSGTDFTLKISRVEAEDVGVYYCMQALQTPPWTFGQGTKVEIRRTVAAPQAVLTQPSSLSAPPGASASLTCTLRSGFNVDSYRISWYQQKPGSPPQYLLRYKSDSDKQQGSGVPSRFSGSKDASANAGILLISGLQSEDEADYYCMIWHSSAWVFGGGTKLTVL",Kd,[2],16 nM
same,koff,[2],0.0013 s⁻¹
same,kon,[2],83000 M⁻¹ s⁻¹
"DVD2210 (bispecific antibody, DVD-Ig, outer AB005 / inner AB034) VH: EVQLVQSGGGLVKPGGSLRLSCAASGFTFSSYAMHWVRQAPGKGLEWVAVISYDGSNKYYADSVKGRFTISRDNSKNTLYLQMNSLRAEDTAVYYCARFSGWPNNYYYYGMDVWGQGTTVTVSSASTKGPQVQLQESGPGLVKPSEILSLTCTVSGGSISSHYWSWVRQPPGKGLEWIGYIYYSGSTNYNPSLKSRVTISVDTSKNQFSLNLSSVTAADTAVYYCARIPNYYDRSGYYPGYWYFDLWGRGTLVTVSS VL: DVVMTQSPLSLPVTPGEPASISCRSSQSLLHSNGFNYVDWYLQKPGQSPHLLIYFGSYRASGVPDRFSGSGSGTDFTLKISRVEAEDVGVYYCMQALQTPPWTFGQGTKVEIRRTVAAPSVFIFPPQAVLTQPSSLSAPPGASASLTCTLRSGFNVDSYRISWYQQKPGSPPQYLLRYKSDSDKQQGSGVPSRFSGSKDASANAGILLISGLQSEDEADYYCMIWHSSAWVFGGGTKLTVL",Kd,[2],15 nM
same,koff,[2],0.0017 s⁻¹
same,kon,[2],110000 M⁻¹ s⁻¹
"DVD2212 (bispecific antibody, DVD-Ig, outer AB005 / inner AB034) VH: EVQLVQSGGGLVKPGGSLRLSCAASGFTFSSYAMHWVRQAPGKGLEWVAVISYDGSNKYYADSVKGRFTISRDNSKNTLYLQMNSLRAEDTAVYYCARFSGWPNNYYYYGMDVWGQGTTVTVSSASTKGPSVFPLAPQVQLQESGPGLVKPSEILSLTCTVSGGSISSHYWSWVRQPPGKGLEWIGYIYYSGSTNYNPSLKSRVTISVDTSKNQFSLNLSSVTAADTAVYYCARIPNYYDRSGYYPGYWYFDLWGRGTLVTVSS VL: DVVMTQSPLSLPVTPGEPASISCRSSQSLLHSNGFNYVDWYLQKPGQSPHLLIYFGSYRASGVPDRFSGSGSGTDFTLKISRVEAEDVGVYYCMQALQTPPWTFGQGTKVEIRRTVAAPQAVLTQPSSLSAPPGASASLTCTLRSGFNVDSYRISWYQQKPGSPPQYLLRYKSDSDKQQGSGVPSRFSGSKDASANAGILLISGLQSEDEADYYCMIWHSSAWVFGGGTKLTVL",Kd,[2],16 nM
same,koff,[2],0.0012 s⁻¹
same,kon,[2],74000 M⁻¹ s⁻¹
"DVD2281 (bispecific antibody, DVD-Ig, outer AB116 / inner AB075) VH: EVQLLESGGGLVQPGGSLRLSCAASGFTFSHYVMAWVRQAPGKGLEWVSSISSSGGWTLYADSVKGRFTISRDNSKNTLYLQMNSLRAEDTAVYYCTRGLKMATIFDYWGQGTLVTVSSASTKGPEVQLVQSGAEVKKPGSSVKVSCKASGGTFSSYAISWVRQAPGQGLEWMGGIIPIFGTANYAQKFQGRVTITADKSTSTAYMELSSLRSEDTAVYYCARAPLRFLEWSTQDHYYYYYMDVWGKGTTVTVSS VL: QSALTQPASVSGSPGQSITISCTGTSSDVGSYNVVSWYQQHPGKAPKLIIYEVSQRPSGVSNRFSGSKSGNTASLTISGLQTEDEADYYCCSYAGSSIFVIFGGGTKVTVLGQPKAAPSSELTQDPAVSVALGQTVRITCQGDSLRSYYATWYQQKPGQAPILVIYGENKRPSGIPDRFSGSSSGNTASLTITGAQAEDEADYYCKSRDGSGQHLVFGGGTKLTVL",Kd,[3],6.1 nM
same,koff,[3],0.00024 s⁻¹
same,kon,[3],40000 M⁻¹ s⁻¹
"DVD2209 (bispecific antibody, DVD-Ig, outer AB034 / inner AB005) VH: QVQLQESGPGLVKPSEILSLTCTVSGGSISSHYWSWVRQPPGKGLEWIGYIYYSGSTNYNPSLKSRVTISVDTSKNQFSLNLSSVTAADTAVYYCARIPNYYDRSGYYPGYWYFDLWGRGTLVTVSSASTKGPEVQLVQSGGGLVKPGGSLRLSCAASGFTFSSYAMHWVRQAPGKGLEWVAVISYDGSNKYYADSVKGRFTISRDNSKNTLYLQMNSLRAEDTAVYYCARFSGWPNNYYYYGMDVWGQGTTVTVSS VL: QAVLTQPSSLSAPPGASASLTCTLRSGFNVDSYRISWYQQKPGSPPQYLLRYKSDSDKQQGSGVPSRFSGSKDASANAGILLISGLQSEDEADYYCMIWHSSAWVFGGGTKLTVLRTVAAPDVVMTQSPLSLPVTPGEPASISCRSSQSLLHSNGFNYVDWYLQKPGQSPHLLIYFGSYRASGVPDRFSGSGSGTDFTLKISRVEAEDVGVYYCMQALQTPPWTFGQGTKVEIR",Kd,[2],23 nM
"DVD2213 (bispecific antibody, DVD-Ig, outer AB034 / inner AB005) VH: QVQLQESGPGLVKPSEILSLTCTVSGGSISSHYWSWVRQPPGKGLEWIGYIYYSGSTNYNPSLKSRVTISVDTSKNQFSLNLSSVTAADTAVYYCARIPNYYDRSGYYPGYWYFDLWGRGTLVTVSSASTKGPSVFPLAPEVQLVQSGGGLVKPGGSLRLSCAASGFTFSSYAMHWVRQAPGKGLEWVAVISYDGSNKYYADSVKGRFTISRDNSKNTLYLQMNSLRAEDTAVYYCARFSGWPNNYYYYGMDVWGQGTTVTVSS VL: QAVLTQPSSLSAPPGASASLTCTLRSGFNVDSYRISWYQQKPGSPPQYLLRYKSDSDKQQGSGVPSRFSGSKDASANAGILLISGLQSEDEADYYCMIWHSSAWVFGGGTKLTVLRTVAAPDVVMTQSPLSLPVTPGEPASISCRSSQSLLHSNGFNYVDWYLQKPGQSPHLLIYFGSYRASGVPDRFSGSGSGTDFTLKISRVEAEDVGVYYCMQALQTPPWTFGQGTKVEIR",Kd,[2],18 nM
"DVD2211 (bispecific antibody, DVD-Ig, outer AB034 / inner AB005) VH: QVQLQESGPGLVKPSEILSLTCTVSGGSISSHYWSWVRQPPGKGLEWIGYIYYSGSTNYNPSLKSRVTISVDTSKNQFSLNLSSVTAADTAVYYCARIPNYYDRSGYYPGYWYFDLWGRGTLVTVSSASTKGPEVQLVQSGGGLVKPGGSLRLSCAASGFTFSSYAMHWVRQAPGKGLEWVAVISYDGSNKYYADSVKGRFTISRDNSKNTLYLQMNSLRAEDTAVYYCARFSGWPNNYYYYGMDVWGQGTTVTVSS VL: QAVLTQPSSLSAPPGASASLTCTLRSGFNVDSYRISWYQQKPGSPPQYLLRYKSDSDKQQGSGVPSRFSGSKDASANAGILLISGLQSEDEADYYCMIWHSSAWVFGGGTKLTVLRTVAAPSVFIFPPDVVMTQSPLSLPVTPGEPASISCRSSQSLLHSNGFNYVDWYLQKPGQSPHLLIYFGSYRASGVPDRFSGSGSGTDFTLKISRVEAEDVGVYYCMQALQTPPWTFGQGTKVEIR",Kd,[2],15 nM
"DVD2282 (bispecific antibody, DVD-Ig, outer AB075 / inner AB062) VH: EVQLVQSGAEVKKPGSSVKVSCKASGGTFSSYAISWVRQAPGQGLEWMGGIIPIFGTANYAQKFQGRVTITADKSTSTAYMELSSLRSEDTAVYYCARAPLRFLEWSTQDHYYYYYMDVWGKGTTVTVSSASTKGPQVQLQQWGAGLLKPSETLSLTCAVYGGSFSGYYWSWIRQPPGKGLEWIGEINHSGSTNYNPSLKSRVTISVETSKNQFSLKLSSVTAADTAVYYCARDKWTWYFDLWGRGTLVTVSS VL: SSELTQDPAVSVALGQTVRITCQGDSLRSYYATWYQQKPGQAPILVIYGENKRPSGIPDRFSGSSSGNTASLTITGAQAEDEADYYCKSRDGSGQHLVFGGGTKLTVLGQPKAAPDIEMTQSPDSLAVSLGERATINCRSSQSVLYSSSNRNYLAWYQQNPGQPPKLLIYWASTRESGVPDRFSGSGSGTDFTLTISSLQAEDVAVYYCQQYYSTPRTFGQGTKVEIK",Kd,Recombinant Human IGF1R,5.2 nM
same,koff,Recombinant Human IGF1R,0.00013 s⁻¹
same,kon,Recombinant Human IGF1R,25000 M⁻¹ s⁻¹
"DVD2278 (bispecific antibody, DVD-Ig, outer AB075 / inner AB063) VH: EVQLVQSGAEVKKPGSSVKVSCKASGGTFSSYAISWVRQAPGQGLEWMGGIIPIFGTANYAQKFQGRVTITADKSTSTAYMELSSLRSEDTAVYYCARAPLRFLEWSTQDHYYYYYMDVWGKGTTVTVSSASTKGPEVQLVESGGGLVQPGGSLRLSCAASGFTFSIYSMNWVRQAPGKGLEWVSYISSSSSTIYYADSVKGRFTISRDNAKNSLYLQMNSLRDEDTAVYYCARDRGDFDAFDIWGQGTMVTVSS VL: SSELTQDPAVSVALGQTVRITCQGDSLRSYYATWYQQKPGQAPILVIYGENKRPSGIPDRFSGSSSGNTASLTITGAQAEDEADYYCKSRDGSGQHLVFGGGTKLTVLGQPKAAPDIQMTQSPSSLSASVGDRVTITCQASQDITNYLNWYQQKPGKAPKLLIYDASNLETGVPSRFSGSGSGTDFTFTISSLQPEDIATYNCQQCENFPITFGQGTRLEIK",Kd,Recombinant Human IGF1R,8.6 nM
same,koff,Recombinant Human IGF1R,0.00021 s⁻¹
same,kon,Recombinant Human IGF1R,25000 M⁻¹ s⁻¹
